{"source": "patent CN105622755A", "about": "(1ST AFFILIATED HOSPITAL OF 3RD MILITARY MEDICAL UNIV PLA, dated 2016)", "binders": {"B1": {"name": "抗前列腺特异性膜抗原单域重链抗体噬菌体阳性克隆 (VHH)", "VHH": "QVQLVESGGGLVQAGDSLRLSCAASRRTFSFMAWYRQAPGKQRELVAAITSGGRNTNYADSVKGRFTISRDNAKNTMYLQMNSLKPEDTAVYYCNAAARWNNYWGQGTPVTVSS", "notes": "The phage coat protein fusion and any linker are not described; Selected from a naive camelid VHH phage display library; also called 针对前列腺特异性膜抗原的单域重链抗体阳性克隆; 展示本发明所述纳米抗体的噬菌体克隆"}}, "key": {"重组表达的PSMA胞外区蛋白": {"target": "T1, 重组表达的PSMA胞外区蛋白 (UniProt Q04609 44-750, limits assumed)", "T1 construct": "extracellular domain; also called 前列腺特异性膜抗原膜外区; PSMA抗原; not shown: His tag (purified with HisTrap FF Crude, detected with anti-His antibody)", "T1 sequence (Q04609 44-750 limits assumed)": "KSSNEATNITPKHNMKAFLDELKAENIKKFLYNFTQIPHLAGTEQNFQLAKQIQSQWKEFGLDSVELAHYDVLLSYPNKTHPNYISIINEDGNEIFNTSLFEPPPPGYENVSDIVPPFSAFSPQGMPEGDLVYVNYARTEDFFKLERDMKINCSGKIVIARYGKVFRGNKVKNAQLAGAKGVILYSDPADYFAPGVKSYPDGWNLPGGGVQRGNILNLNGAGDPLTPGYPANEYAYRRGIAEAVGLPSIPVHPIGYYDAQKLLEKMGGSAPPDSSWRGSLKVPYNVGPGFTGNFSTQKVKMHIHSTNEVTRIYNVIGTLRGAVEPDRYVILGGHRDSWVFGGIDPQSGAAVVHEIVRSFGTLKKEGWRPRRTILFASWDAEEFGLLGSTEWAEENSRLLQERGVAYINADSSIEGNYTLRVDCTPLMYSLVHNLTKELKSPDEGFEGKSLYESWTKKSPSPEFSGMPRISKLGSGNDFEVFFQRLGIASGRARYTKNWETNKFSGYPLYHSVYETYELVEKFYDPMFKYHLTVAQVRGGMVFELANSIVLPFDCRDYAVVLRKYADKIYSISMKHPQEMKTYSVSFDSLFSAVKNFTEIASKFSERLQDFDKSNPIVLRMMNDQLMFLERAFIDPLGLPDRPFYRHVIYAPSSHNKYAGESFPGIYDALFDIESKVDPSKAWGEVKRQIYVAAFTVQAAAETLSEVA", "experiment": "indirect phage-ELISA, PSMA extracellular region coated at 5 μg/mL, HRP-anti-M13 detection"}, "[1]": {"target": "T2, 前列腺特异性膜抗原 (PSMA) on LNCaP cells (UniProt Q04609 1-750, limits assumed)", "T2 construct": "whole, on cells; Endogenous PSMA on fixed LNCaP cells; also called prostate specific membrane antigen; LNCaP细胞(表达PSMA)", "T2 sequence (Q04609 whole entry)": "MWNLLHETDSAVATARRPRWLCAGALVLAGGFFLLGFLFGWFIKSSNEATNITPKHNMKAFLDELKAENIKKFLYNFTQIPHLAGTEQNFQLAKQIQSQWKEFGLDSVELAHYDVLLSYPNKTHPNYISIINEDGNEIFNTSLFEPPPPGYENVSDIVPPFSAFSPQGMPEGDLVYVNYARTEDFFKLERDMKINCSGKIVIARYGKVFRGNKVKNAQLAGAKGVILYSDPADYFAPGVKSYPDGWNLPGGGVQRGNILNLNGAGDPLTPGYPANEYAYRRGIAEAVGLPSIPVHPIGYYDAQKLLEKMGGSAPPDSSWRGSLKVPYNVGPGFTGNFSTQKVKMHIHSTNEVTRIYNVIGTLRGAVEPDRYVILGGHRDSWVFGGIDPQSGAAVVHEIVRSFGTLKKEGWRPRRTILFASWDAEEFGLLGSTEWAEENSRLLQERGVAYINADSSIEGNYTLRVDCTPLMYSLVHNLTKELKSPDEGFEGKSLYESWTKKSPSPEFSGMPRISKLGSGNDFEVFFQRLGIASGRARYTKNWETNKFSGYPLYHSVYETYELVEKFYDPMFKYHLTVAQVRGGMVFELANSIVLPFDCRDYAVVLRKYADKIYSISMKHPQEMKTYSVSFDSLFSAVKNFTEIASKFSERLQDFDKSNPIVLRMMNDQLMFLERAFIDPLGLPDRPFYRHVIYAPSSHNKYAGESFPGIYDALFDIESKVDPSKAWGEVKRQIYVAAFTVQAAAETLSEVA", "experiment": "cell ELISA (OD450) and immunofluorescence on fixed LNCaP cells (PSMA+) against MKN45 cells (PSMA-), anti-M13 detection"}}}
{"binder": "B1", "values": [{"measurement": "binding result", "setting": "重组表达的PSMA胞外区蛋白", "value": "binds"}, {"measurement": "binding result", "setting": "[1]", "value": "binds"}]}
